Measured values: patent US20110318360A1

B1: mAb 11.31 (PGN 632) (antibody, V domains shown)
VH: QVQLQESGPGLVKPSGTLSLTCAVSGGSISSSNWWSWVRQPPGKGLEWIGEIYHSGSTNYNPSLKSRVTISVDKSKNQFSLKLSSVTAADTAVYYCARSRFRSWLVKRRYVYFDYWGQGTLVTVSS
VL: SSELSQDPAVSVALGQTVRITCQGDSLRSYYASWYQQKPGQAPVLVIYGKNNRPSGIPDRFSGSSSGNTASLTITGAQAEDEADYYCNSRDSSGNVVFGGGTKVTVL

How the values were obtained:
[1] = target: Env of HIV-BaL.LucR.T2A.ecto/hPBMC (HIV-1)
[2] = target: HIV-1 B.AD8 Env on Aldrithiol-2 inactivated virions (HIV-1)
[3] = target: HIV-1 B.MN Env on Aldrithiol-2 inactivated virions (HIV-1)
[4] = target: HIV-1 B.ADA Env on Aldrithiol-2 inactivated virions (HIV-1)
[5] = target: HIV-1 C.DU123 Env (HIV-1)

Molecule | mean IC80, inhibition of HIV-1 infection of PBMC from 75 donors [1] [µg/mL] | IC90, inhibition of fusion (syncytia) induced by Aldrithiol-2 inactivated HIV-1 in SUP-T1 cells [2] [µg/mL] | IC90, inhibition of fusion (syncytia) induced by Aldrithiol-2 inactivated HIV-1 in SUP-T1 cells [3] [µg/mL] | IC90, inhibition of fusion (syncytia) induced by Aldrithiol-2 inactivated HIV-1 in SUP-T1 cells [4] [µg/mL] | IC50, neutralization of HIV-1 Env pseudovirus in TZM-bl cells (HIV-1 B.PVO Env (HIV-1)) [µg/mL] | IC50, neutralization of HIV-1 Env pseudovirus in TZM-bl cells (HIV-1 B.6535 Env (HIV-1)) [µg/mL] | IC50, neutralization of HIV-1 Env pseudovirus in TZM-bl cells [5] [µg/mL]
4E10 (antibody) | 20.4 | 10 | < 1.2 | < 1.2 | 2.2 | < 2 | < 2
2F5 (antibody) |  | 3.4 | < 1.2 | < 1.2 |  |  | 
IgG1b12 (antibody) | 9.2 |  |  |  |  |  | 
Bavituximab (antibody) |  |  |  |  | > 50 | > 50 | > 50
B1 |  |  |  |  | > 50 | > 50 | > 50
